Usually koff stands for a measure of how fast the partners let go of each other. A word on the kon: it is a measure of how fast the partners come together. What is called Kd is the concentration at which binding is half-saturated.

This is an account of results in US20030092091A1 (GlaxoSmithKline, published 2003).

Experiment [1] has as its target SAF-2 (Siglec-8 / Siglec-8L) on the cell surface (human) (UniProt Q9NYZ4). The experiment is described as follows: cell-based or functional assay.
The target of experiment [2] is T1, SAF-2 polypeptide (extracellular domain of sialoadhesin factor-2, released from SAF-2/Fc by Factor Xa … (human, UniProt Q9NYZ4 17-363)).
T1 construct: extracellular domain; The BIAcore analyte is printed only as 'SAF-2 (diluted in HBS buffer)'; Residues left over from the cleavage site are not described; also called Siglec-8
The experiment is described as follows: BIAcore SPR. The mAb was captured on a rabbit anti-mouse IgG Fc surface and SAF-2 was injected as analyte. Here is the method: (§1) Kinetic data was evaluated using relationships described previously (Karlsson, et al. (1991) J. Immunol. Meth. 145:229). The mAb (diluted in HBS buffer, 10 mM HEPES, 150 mM NaCl, 0.01% Tween-20, pH 7.4) was injected over a rabbit anti-mouse IgG Fe surface, followed by buffer flow, and the RU was recorded. SAF-2 (diluted in HBS buffer) was then injected for 180 seconds, followed by a buffer flow for 300 seconds, and the RU was recorded. The sensor chip surface was regenerated by an injection of 0.1 M phosphoric acid. The on-rates (Kₐ) and off-rates (Kd) of binding were calculated using BIAcore (Uppswala, Sweden) software.
For orientation: In SPR one partner is held on a chip, and binding of the other changes the refractive index at the surface.

Experiment [3] addresses T1, SAF-2 polypeptide (extracellular domain …). The experiment is described as follows: BIAcore SPR. The mAb was captured on a rabbit anti-mouse IgG Fc surface and SAF-2 was injected as analyte. KD was calculated from the rates. The procedure:
as §1

Chain of SAF-2 (Siglec-8 / Siglec-8L) on the cell surface (human) (Q9NYZ4 17-499): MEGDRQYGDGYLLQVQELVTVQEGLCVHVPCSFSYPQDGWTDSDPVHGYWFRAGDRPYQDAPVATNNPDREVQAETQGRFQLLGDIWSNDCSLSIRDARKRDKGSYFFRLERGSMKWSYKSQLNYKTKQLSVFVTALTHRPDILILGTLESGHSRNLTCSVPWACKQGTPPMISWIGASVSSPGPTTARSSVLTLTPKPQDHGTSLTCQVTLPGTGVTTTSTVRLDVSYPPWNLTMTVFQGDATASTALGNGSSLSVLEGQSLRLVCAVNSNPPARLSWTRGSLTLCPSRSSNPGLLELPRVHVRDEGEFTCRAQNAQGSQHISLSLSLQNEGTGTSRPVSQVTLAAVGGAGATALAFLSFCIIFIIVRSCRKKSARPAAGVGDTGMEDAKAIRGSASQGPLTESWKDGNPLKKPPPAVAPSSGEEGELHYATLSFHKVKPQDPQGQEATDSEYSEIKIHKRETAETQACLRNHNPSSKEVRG
T1 sequence (Q9NYZ4 17-363): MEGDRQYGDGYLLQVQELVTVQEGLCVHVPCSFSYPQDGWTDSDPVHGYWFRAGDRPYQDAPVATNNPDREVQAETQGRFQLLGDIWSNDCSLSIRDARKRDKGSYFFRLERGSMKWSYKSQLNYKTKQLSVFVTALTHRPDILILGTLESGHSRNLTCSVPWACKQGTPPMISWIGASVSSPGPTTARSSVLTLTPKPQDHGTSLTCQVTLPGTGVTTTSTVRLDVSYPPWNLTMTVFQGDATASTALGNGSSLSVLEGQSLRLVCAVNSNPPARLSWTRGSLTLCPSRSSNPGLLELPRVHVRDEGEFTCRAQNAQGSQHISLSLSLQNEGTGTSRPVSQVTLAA

B1: 2E2 mAb (antibody, from another filing, V domains shown)
VH: VQLKRASGPGLVAPSQSLSITCTVSGFSLTIYGAHWVRQPPGKGLEWLGVIWAGGSTNYNSALMSRLSISKDNSKSQVFLKINSLQTDDTALYYCARDGSSPYYYSMEYWGQGTSVTVSS
VL: QIILTQSPAIMSASPGEKVSITCSATSSVSYMHWFQQKPGTSPKLWIYSTSNLASGVPVRFSGSGSGTSYSLTISRMEAEDAATYYCQQRSSYPFTFGSGTKLEIKA
For the molecule B1, in experiment [1], the apoptosis (annexin-V) of IL-5-primed eosinophils, 2E2 mAb alone was determined as 69%; the apoptosis (annexin-V) of unprimed eosinophils, 2E2 and secondary Ab worked out at 72%; the eosinophil death at 48-72 h of culture (erythrosin-B dye exclusion), 2E2 plus secondary polyclonal Ab is over 90%; the eosinophil death at 24 h of culture (erythrosin-B dye exclusion), 2E2 plus secondary polyclonal Ab stood at 68%.

B2: monoclonal antibody 2C4 (antibody, IgG1, V domains shown)
VH: QVQLKESGPGLVAPSQSLSITCTVSGFSLIYGAHWVRQPPGKGLEWLGVIWAGGSTNYNSALMSRLSISKDNSKSQVFLKINSLQTDDTALYYCARDGSSPYYYSMEYWGQGTSVTVSS
VL: EIILTQSPAIMSASPGEKVSITCSATSSVSYMHWFQQKPGTSPKLWIYSTSNLASGVPVRFSGSGSGTSYSLTISRMEAEDAATYYCQQRSSYPFTFGSGTKLEIKR
notes: also called mAb 2C4
Turning to B2, in experiment [2], the dissociation rate constant (koff) was found to be 4.3e-05 s⁻¹ and the on-rate constant (kon) was determined as 220000 M⁻¹ s⁻¹. In experiment [3], the Kd was 0.2 nM.
